Paper PMC12866175 (European journal of nuclear medicine and molecular imaging, 2021)

Assay: Radiation dosimetry and clearance kinetics from biodistribution data
Assay type: in vivo, BALB/c mice
Conditions: for Total absorbed dose/injected activity: sum of five α-emitting radionuclides

For `C[C@@H](O)[C@H](NC(=O)[C@@H]1CSSC[C@H](NC(=O)[C@@H](Cc2ccccc2)NC(=O)CN2CCN(CC(=O)O)CCN(CC(=O)O)CCN(CC(=O)O)CC2)C(=O)N[C@@H](Cc2ccc(O)cc2)C(=O)N[C@H](Cc2c[nH]c3ccccc23)C(=O)N[C@@H](CCCCN)C(=O)N[C@@H]([C@@H](C)O)C(=O)N1)C(=O)O` [[^225Ac]Ac-DOTA-TATE, metal not drawn], the “Decay rate constant, λeff” value (^221Fr, Stomach) was 0.0170 h⁻¹, the “Initial activity/organ, A○” value (^221Fr, Stomach) was 0.0852 kBq and the “lower effective half-life of kidneys compared to liver” value (^225Ac) was about 5 fold. The Absorbed dose/injected activity (^225Ac, Blood) was 0.0000 Gy/kBq, the “Accumulated activity/organ, A~” value (^225Ac, Blood) was 0.0080 kBq×h and the “Decay rate constant, λeff” value (^225Ac, Blood) was 0.0206 h⁻¹. The “Initial activity/organ, A○” value (^225Ac, Blood) was 0.0003 kBq, the Absorbed dose/injected activity (^225Ac, Bone) was 0.0004 Gy/kBq and the “Accumulated activity/organ, A~” value (^225Ac, Bone) was 1.4274 kBq×h. The “Decay rate constant, λeff” value (^225Ac, Bone) was 0.0030 h⁻¹, the “Initial activity/organ, A○” value (^225Ac, Bone) was 0.0131 kBq and the Absorbed dose/injected activity (^225Ac, Brain) was 0.0001 Gy/kBq. The “Accumulated activity/organ, A~” value (^225Ac, Brain) was 0.8190 kBq×h, the “Decay rate constant, λeff” value (^225Ac, Brain) was -0.0103 h⁻¹ and the “Initial activity/organ, A○” value (^225Ac, Brain) was 0.0019 kBq. For the same molecule, the Absorbed dose/injected activity (^225Ac, Heart) was 0.0001 Gy/kBq, the “Accumulated activity/organ, A~” value (^225Ac, Heart) was 0.4871 kBq×h and the “Decay rate constant, λeff” value (^225Ac, Heart) was -0.0004 h⁻¹. For the same molecule, the “Initial activity/organ, A○” value (^225Ac, Heart) was 0.0033 kBq, the Absorbed dose/injected activity (^225Ac, Intestine) was 0.0001 Gy/kBq and the “Accumulated activity/organ, A~” value (^225Ac, Intestine) was 4.4589 kBq×h. For the same molecule, the “Decay rate constant, λeff” value (^225Ac, Intestine) was 0.0200 h⁻¹, the “Initial activity/organ, A○” value (^225Ac, Intestine) was 0.1527 kBq and the Absorbed dose/injected activity (^225Ac, Kidney) was 0.0012 Gy/kBq. For the same molecule, the “Accumulated activity/organ, A~” value (^225Ac, Kidney) was 8.2462 kBq×h, the “Decay rate constant, λeff” value (^225Ac, Kidney) was 0.0250 h⁻¹ and the “Initial activity/organ, A○” value (^225Ac, Kidney) was 0.3862 kBq. For the same molecule, the Absorbed dose/injected activity (^225Ac, Liver) was 0.0012 Gy/kBq, the “Accumulated activity/organ, A~” value (^225Ac, Liver) was 29.4458 kBq×h and the “Decay rate constant, λeff” value (^225Ac, Liver) was -0.0053 h⁻¹. The “Initial activity/organ, A○” value (^225Ac, Liver) was 0.1200 kBq, the Absorbed dose/injected activity (^225Ac, Lung) was 0.0001 Gy/kBq and the “Accumulated activity/organ, A~” value (^225Ac, Lung) was 1.0829 kBq×h. For the same molecule, the “Decay rate constant, λeff” value (^225Ac, Lung) was 0.0130 h⁻¹, the “Initial activity/organ, A○” value (^225Ac, Lung) was 0.0227 kBq and the Absorbed dose/injected activity (^225Ac, Muscle) was 0.0001 Gy/kBq. The “Accumulated activity/organ, A~” value (^225Ac, Muscle) was 0.5613 kBq×h, the “Decay rate constant, λeff” value (^225Ac, Muscle) was -0.0049 h⁻¹ and the “Initial activity/organ, A○” value (^225Ac, Muscle) was 0.0024 kBq. The Absorbed dose/injected activity (^225Ac, Pancreas) was 0.0003 Gy/kBq, the “Accumulated activity/organ, A~” value (^225Ac, Pancreas) was 1.4271 kBq×h and the “Decay rate constant, λeff” value (^225Ac, Pancreas) was 0.0060 h⁻¹. For the same molecule, the “Initial activity/organ, A○” value (^225Ac, Pancreas) was 0.0171 kBq, the Absorbed dose/injected activity (^225Ac, Salivary) was 0.0002 Gy/kBq and the “Accumulated activity/organ, A~” value (^225Ac, Salivary) was 0.8906 kBq×h. For the same molecule, the “Decay rate constant, λeff” value (^225Ac, Salivary) was -0.0077 h⁻¹, the “Initial activity/organ, A○” value (^225Ac, Salivary) was 0.0028 kBq and the Absorbed dose/injected activity (^225Ac, Skin) was 0.0001 Gy/kBq. The “Accumulated activity/organ, A~” value (^225Ac, Skin) was 0.8656 kBq×h, the “Decay rate constant, λeff” value (^225Ac, Skin) was -0.0092 h⁻¹ and the “Initial activity/organ, A○” value (^225Ac, Skin) was 0.0023 kBq. For the same molecule, the Absorbed dose/injected activity (^225Ac, Spleen) was 0.0001 Gy/kBq, the “Accumulated activity/organ, A~” value (^225Ac, Spleen) was 0.3228 kBq×h and the “Decay rate constant, λeff” value (^225Ac, Spleen) was 0.0062 h⁻¹. The “Initial activity/organ, A○” value (^225Ac, Spleen) was 0.0039 kBq, the Absorbed dose/injected activity (^225Ac, Stomach) was 0.0004 Gy/kBq and the “Accumulated activity/organ, A~” value (^225Ac, Stomach) was 2.6801 kBq×h. The “Decay rate constant, λeff” value (^225Ac, Stomach) was 0.0190 h⁻¹, the “Initial activity/organ, A○” value (^225Ac, Stomach) was 0.0859 kBq and the “Total absorbed dose/injected activity” value (Blood) was 0.0002 Gy/kBq. The “Total absorbed dose/injected activity” value (Bone) was 0.0014 Gy/kBq, the “Total absorbed dose/injected activity” value (Brain) was 0.0004 Gy/kBq and the “Total absorbed dose/injected activity” value (Heart) was 0.0004 Gy/kBq. The “Total absorbed dose/injected activity” value (Intestine) was 0.0007 Gy/kBq, the “Total absorbed dose/injected activity” value (Kidney) was 0.0068 Gy/kBq and the “Total absorbed dose/injected activity” value (Liver) was 0.0059 Gy/kBq. The “Total absorbed dose/injected activity” value (Lung) was 0.0009 Gy/kBq, the “Total absorbed dose/injected activity” value (Muscle) was 0.0003 Gy/kBq and the “Total absorbed dose/injected activity” value (Pancreas) was 0.0011 Gy/kBq. The “Total absorbed dose/injected activity” value (Salivary) was 0.0008 Gy/kBq, the “Total absorbed dose/injected activity” value (Skin) was 0.0004 Gy/kBq and the “Total absorbed dose/injected activity” value (Spleen) was 0.0016 Gy/kBq. The “Total absorbed dose/injected activity” value (Stomach) was 0.0017 Gy/kBq.
